Test results published in patent publication US12618828B2, “Probe and method for detecting membrane-associated molecules in living cells” (priority 2021, dated 2026).

How the values were obtained:
Assay type in all cases: cell-based
[1] = biological target: T1, activated form of the G-protein Gαi1 (Gαi1(Q204L)) (Homo sapiens, UniProt P63096, Q204L); test: Polarization microscopy of probe in HEK293 cells, with or without cotransfected constitutively activated Gαi1(Q204L); settings: cotransfection of Gαi1(Q204L) plasmid, excitation polarization resolved single-photon laser scanning confocal microscopy
T1 construct: expressed in transfected cells; host or cells: HEK293
Source text: A protein (SEQ ID NO:5) that includes as an anchoring moiety a fragment of the protein h-Ras, a flexible peptide linker (amino acid sequence GSGGSGG (SEQ ID NO:1)), a monomeric enhanced green fluorescent protein (meGFP) as a fluorescent moiety, and an affinity binding peptide KB1753 known to bind the activated form of the G-protein Gαi1 (Johnston C A & al., Structure. 2005 Jul. 1; 13(7):1069-80), was encoded into a DNA sequence (SEQ ID NO:6) and cloned into a mammalian expression vector (pcDNA3.1(+)) under the control of the cytomegalovirus (CMV) promoter. The resulting DNA encoding the probe of invention was transfected into HEK293 cells either alone, or along with DNA encoding the target protein of the probe.
Prior to microscopy observations, mammalian cells (HEK293) were cultured at 37° C. under an atmosphere of 95% air, 5% CO2, in Dulbecco's modified Eagle's medium with Glutamax I and high glucose (Life Technologies), supplemented with 10% fetal bovine serum. […]
The cells were observed by excitation polarization resolved single-photon laser scanning confocal microscopy, by excitation polarization resolved two-photon laser scanning microscopy, by excitation polarization resolved single-photon wide-field fluorescence microscopy, and by fluorescence polarization resolved single-photon laser scanning confocal microscopy.
(§1) In excitation polarization resolved single-photon laser scanning confocal microscopy, the cells (in the multi-well cover slip) were observed using a single-photon laser scanning confocal microscope Olympus FV1200, modified for excitation-polarization resolved microscopy. […] Fluorescence of wavelengths in the range of 510-610 nm was separated from the excitation light by a long-pass dichroic mirror (DM405/488, Olympus, Japan), diffractive grating, and an adjustable slit, and detected by a photomultiplier. […]
(§2) The resulting images were deconvolved and quantitatively analyzed by following published procedures (Bondar A & al., Communications Biology. 2021 Feb. 12; 4(1):1-2.) that rely on publicly available software tools. […]

GβGγ dimer = biological target: T2, GβGγ dimer (Homo sapiens, UniProt P59768+P62873); test: Polarization microscopy of probe in HEK293 cells, with or without cotransfected GβGγ dimer; settings: cotransfection of plasmids encoding the, excitation polarization resolved single-photon confocal microscopy
T2 construct: expressed in transfected cells; host or cells: HEK293
Procedure: (§3) Prior to microscopy observations, mammalian cells (HEK293) were cultured at 37° C. under an atmosphere of 95% air, 5% CO2, in Dulbecco's modified Eagle's medium with Glutamax I and high glucose (Life Technologies), supplemented with 10% fetal bovine serum. Cells were plated on 8-chamber microscopy slides (p-Slides, Ibidi GmbH, Germany). Transfections were carried out using 0.2 μg of plasmid DNA and Lipofectamine 2000 (Life Technologies), according to the protocol of the manufacturer. In cotransfections, 0.2 μg of each of the plasmids were used. Microscopy experiments were carried out 48 h after transfection. […]
as §1, §2

activated form of Gαi1 = biological target: T3, activated form of Gαi1 (Homo sapiens, UniProt P63096); test: Polarization microscopy of probe in HEK293 cells, Gαi1 activated through the α2-adrenergic receptor by norepinephrine; settings: HEK293 cells cotransfected with Gαi1, Gβ1, Gγ2 and α2-adrenergic receptor; 10 μM norepinephrine; excitation polarization resolved single-photon confocal microscopy
T3 construct: expressed in transfected cells; host or cells: HEK293
Procedure: as §3, §1, §2

T1 sequence (P63096 whole entry Q204L): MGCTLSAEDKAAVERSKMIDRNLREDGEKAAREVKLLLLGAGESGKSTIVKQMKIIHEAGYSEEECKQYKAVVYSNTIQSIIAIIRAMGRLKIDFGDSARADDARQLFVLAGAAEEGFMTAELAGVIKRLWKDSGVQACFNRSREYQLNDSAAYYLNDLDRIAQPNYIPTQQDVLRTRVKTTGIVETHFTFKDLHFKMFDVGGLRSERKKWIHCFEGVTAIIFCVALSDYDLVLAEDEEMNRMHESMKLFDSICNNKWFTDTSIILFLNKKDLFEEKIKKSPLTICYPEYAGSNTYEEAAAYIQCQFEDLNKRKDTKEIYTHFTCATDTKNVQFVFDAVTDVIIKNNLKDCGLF
T3 sequence (P63096 whole entry): as the sequence (P63096 whole entry Q204L) above, with L204Q counted along it
T2 sequence (P62873 2-340 limits assumed): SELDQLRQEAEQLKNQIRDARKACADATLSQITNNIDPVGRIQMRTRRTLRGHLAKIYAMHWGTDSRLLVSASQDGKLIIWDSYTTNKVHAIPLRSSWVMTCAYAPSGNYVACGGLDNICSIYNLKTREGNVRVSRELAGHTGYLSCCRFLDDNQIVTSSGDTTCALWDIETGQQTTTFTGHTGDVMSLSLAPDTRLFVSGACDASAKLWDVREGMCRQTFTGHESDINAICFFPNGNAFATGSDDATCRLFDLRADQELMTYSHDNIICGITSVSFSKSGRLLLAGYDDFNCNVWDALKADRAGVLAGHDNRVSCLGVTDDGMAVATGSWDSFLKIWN
T2 sequence (P59768 2-68 limits assumed): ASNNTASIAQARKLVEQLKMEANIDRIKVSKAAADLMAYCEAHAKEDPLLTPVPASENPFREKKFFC

| Molecule | linear dichroism of the fluorescent moiety of the probe in presence of its target molecule compared with absence [1] | linear dichroism of the fluorescent moiety of the probe in presence of its target molecule compared with absence (GβGγ dimer) | linear dichroism of the fluorescent moiety of the probe in presence of activated Gαi1 compared with absence (activated form of Gαi1) |
| --- | --- | --- | --- |
| KB1753-SNAP-GSGGSGG-hRas (protein, SNAP labelled with SNAP Cell 430; KB1753-SNAP-GSGGSGG-hRas, Protein probe: hRas fragment anchor, GSGGSGG linker, SNAP fluorogenic protein (labelled with SNAP Cell 430), peptide KB1753) MSSRGYYHGIWVGEEGRLSRDKDCEMKRTTLDSPLGKLELSGCEQGLHRIIFLGKGTSAADAVEVPAPAAVLGGPEPLMQATAWLNAYFHQPEAIEEFPVPALHHPVFQQESFTRQVLWKLLKVVKFGEVISYSHLAALAGNPAATAAVKTALSGNPVPILIPCHRVVQGDLDVGGYEGGLAVKEWLLAHEGHRLGKPGLGSGGSGGCMSCKCVLS | statistically significantly higher |  |  |
| GAP43-SSGSSGTG-HALO-GRK2ct (protein, HALO labelled with JF-549; GAP43-SSGSSGTG-HALO-GRK2ct, Protein probe: GAP43 fragment anchor, SSGSSGTG linker, HALO (labelled with JF-549), GRK2 fragment with PH domain) MLCCMRRTKQVEKNDEDQNSSGSSGTGAEIGTGFPFDPHYVEVLGERMHYVDVGPRDGTPVLFLHGNPTSSYVWRNIIPHVAPTHRCIAPDLIGMGKSDKPDLGYFFDDHVRFMDAFIEALGLEEVVLVIHDWGSALGFHWAKRNPERVKGIAFMEFIRPIPTWDEWPEFARETFQAFRTTDVGRKLIIDQNVFIEGTLPMGVVRPLTEVEMDHYREPFLNPVDREPLWRFPNELPIAGEPANIVALVEEYMDWLHQSPVPKLLFWGTPGVLIPPAEAARLAKSLPNCKAVDIGPGLNLLQEDNPDLIGSEIARWLSTLEISGGSSRNFPLVISERWQQEVAETVYEAVNADTDKIEARKRAKNKQLGHEEDYALGRDCIVHGYMLKLGNPFLTQWQRRYFYLFPNRLEWRGEGESRQSLLTMEQIVSVEETQIKDKKCILLRIKGGKQFVLQCESDPEFVQWKKELTETFMEAQRLLRRAPKFLNKSRSAVVELSKPPLCHRNSNGLGSRG |  | statistically significantly higher |  |
| KB1753-HALO-GSGGSGG-hRas (protein, HALO labelled with JF-549; KB1753-HALO-GSGGSGG-hRas, Protein probe: hRas fragment anchor, GSGGSGG linker, HALO fluorogenic protein (labelled with JF-549), peptide KB1753) MSSRGYYHGIWVGEEGRLSRAEIGTGFPFDPHYVEVLGERMHYVDVGPRDGTPVLFLHGNPTSSYVWRNIIPHVAPTHRCIAPDLIGMGKSDKPDLGYFFDDHVRFMDAFIEALGLEEVVLVIHDWGSALGFHWAKRNPERVKGIAFMEFIRPIPTWDEWPEFARETFQAFRTTDVGRKLIIDQNVFIEGTLPMGVVRPLTEVEMDHYREPFLNPVDREPLWRFPNELPIAGEPANIVALVEEYMDWLHQSPVPKLLFWGTPGVLIPPAEAARLAKSLPNCKAVDIGPGLNLLQEDNPDLIGSEIARWLSTLEISGGSGGSGGCMSCKCVLS | statistically significantly lower |  | statistically significantly lower |
| KB1753-mScarlet-GSGGSGG-hRas (protein, KB1753-mScarlet-GSGGSGG-hRas, Protein probe: hRas fragment anchor, GSGGSGG linker, mScarlet, peptide KB1753) MSSRGYYHGIWVGEEGRLSRVSKGEAVIKEFMRFKVHMEGSMNGHEFEIEGEGEGRPYEGTQTAKLKVTKGGPLPFSWDILSPQFMYGSRAFTKHPADIPDYYKQSFPEGFKWERVMNFEDGGAVTVTQDTSLEDGTLIYKVKLRGTNFPPDGPVMQKKTMGWEASTERLYPEDGVLKGDIKMALRLKDGGRYLADFKTTYKAKKPVQMPGAYNVDRKLDITSHNEDYTVVEQYERSEGRHSTGGMDELYKGSGGSGGCMSCKCVLS | statistically significantly higher |  | statistically significantly higher |
